This note sets out measurements from article PMC7862292, “Crystal structures of non-oxidative decarboxylases reveal a new mechanism of action with a catalytic dyad and structural twists” (Scientific Reports, 2021).

Experiment [1] concerns the target T1, PPP2 (Madurella mycetomatis, UniProt A0A175WC91).
T1 construct: gene MMYC01_201259; synthetic gene in pET15b, E. coli C41, N-terminal His6 tag removed by thrombin; trimer with central K+; no cobalt site
Kind of experiment: UV decrease of substrate at […] nm. In kind it is biochemical. As to conditions: 0.5 mM substrate, 50 mM KPi pH 6.5, RT, 160 ug/ml enzyme; decarboxylation to pyrogallol, weaker than protocatechuic acid.

The target in experiment [2] is Pea Pathogenity Protein (PPP2) from Madurella mycetomatis (Madurella mycetomatis). Nature of the experiment: SEC; Superdex 200 10/300; with (25 mM Tris 7.5, 50 mM KCl, 100 mM NaCl) or without (25 mM Tris 7.5, 100 mM NaCl) potassium; Bio-rad Gel Filtration Standard; all proteins eluted as a single peak. In general terms: In gel filtration, larger molecules generally elute earlier.

Experiment [3] has the same target. Kind of experiment: crystal structure; hanging drop vapor diffusion, protein 10 mg/ml in 20 mM Tris pH 7.5, with or without 5 mM nitrocatechol alone or with 0.5 mM CoCl2; AGDC1 in PEG 3350, 0.2 M potassium salt, MES; PPP2 in PEG 3350, 0.2 M calcium chloride, MES pH 5.5.
Experiment [4] addresses AGDC1 E88A mutant (Arxula adenivorans). Nature of the experiment: SEC; Superdex 200 10/300; with (25 mM Tris 7.5, 50 mM KCl, 100 mM NaCl) or without (25 mM Tris 7.5, 100 mM NaCl) potassium; Bio-rad Gel Filtration Standard; all proteins eluted as a single peak.
The target in experiment [5] is T1, PPP2. Nature of the experiment: UV decrease of substrate at […] nm. Format: biochemical. As to conditions: 0.5 mM substrate, 50 mM KPi pH 6.5, RT, 160 ug/ml enzyme; decarboxylation to catechol.
For another experiment, the target named is T2, AGDC1 (Blastobotrys adeninivorans, UniProt A0A060TAG5).
T2 construct: synthetic gene in pET15b, E. coli C41, N-terminal His6 tag removed by thrombin; trimer with central K+ and peripheral Co2+ sites
Kind of experiment: UV decrease of gallic acid at […] nm. Format: biochemical. As to conditions: read-out: % inhibition at 0.5 mM.

The target in experiment [6] is gallic acid decarboxylase AGDC1 from Arxula adenivorans (Arxula adenivorans). Kind of experiment: SEC; Superdex 200 10/300; with (25 mM Tris 7.5, 50 mM KCl, 100 mM NaCl) or without (25 mM Tris 7.5, 100 mM NaCl) potassium; Bio-rad Gel Filtration Standard; all proteins eluted as a single peak.
For experiment [7] the target is unchanged. Kind of experiment: crystal structure; hanging drop vapor diffusion, protein 10 mg/ml in 20 mM Tris pH 7.5, with or without 5 mM nitrocatechol alone or with 0.5 mM CoCl2; AGDC1 in PEG 3350, 0.2 M potassium salt, MES; PPP2 in PEG 3350, 0.2 M calcium chloride, MES pH 5.5.

T2 sequence (A0A060TAG5 entry or part of it): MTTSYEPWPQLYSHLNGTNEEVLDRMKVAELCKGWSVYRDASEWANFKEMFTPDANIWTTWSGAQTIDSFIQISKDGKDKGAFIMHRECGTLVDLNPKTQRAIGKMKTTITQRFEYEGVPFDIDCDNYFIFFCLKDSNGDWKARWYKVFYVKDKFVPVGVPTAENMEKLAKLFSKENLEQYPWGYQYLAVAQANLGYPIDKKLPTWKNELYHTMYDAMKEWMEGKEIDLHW

With `O=C(O)c1cc(O)c(O)c(O)c1` [gallic acid], at PPP2 [1], the “UV decrease of substrate at 259 nm” value is listed as “PPP2 activity with PCA was ~ sevenfold higher than with GA”.

A word on the stoichiometry N: it is the number of molecules, sites or subunits per partner or assembly. Consider “Pea Pathogenity Protein (PPP2) from Madurella mycetomatis (enzyme)”, for which the stoichiometry N in experiment [2] and in experiment [3] was 3 throughout.

For AGDC1 E88A mutant (enzyme), the stoichiometry N in experiment [4] stood at 3.

Consider `O=C(O)c1ccc(O)c(O)c1` [protocatechuic acid], for which the “UV decrease of substrate at 250 nm” value on PPP2 [5] is reported as “PPP2 activity with PCA was ~ sevenfold higher than with GA”.

By inhibition is commonly meant the share of the control response that was lost under treatment. For `O=[N+]([O-])c1ccc(O)c(O)c1` [4-nitrocatechol], at AGDC1, the inhibition at 500 µM came to 98%.

On to “gallic acid decarboxylase AGDC1 from Arxula adenivorans (enzyme)”, for which the stoichiometry N in experiment [6] and in experiment [7] was 3 throughout.
